Source: patent US6919086B1, “Graminae pollen allergen mutants for specific immunotherapy, and production and use of the same” (Merck Patent Gesellschaft mit, priority 1997, dated 2005)

What was measured:
[1] = system: Phl p 5b-reactive T cell clones (TCCs) from allergic patients; assay: Proliferative reaction of Phl p 5b-reactive T cell clones ([3H]-thymidine incorporation); assay type: cell-based, human; settings: final concentration 0.3 μM; for Incorporation of [3H]-thymidine into TCC JR 13 (stimulation index class) / Incorporation of [3H]-thymidine into TCC JR 15 (stimulation index class) / Incorporation of [3H]-thymidine into TCC CB 2 (stimulation index class) / Incorporation of [3H]-thymidine into TCC CB 14 (stimulation index class): T cell-reactive region A; for Incorporation of [3H]-thymidine into TCC DW8 (stimulation index class) / Incorporation of [3H]-thymidine into TCC UZH2 (stimulation index class): T cell-reactive region B; for Incorporation of [3H]-thymidine, stimulation index SI, 1st exp. / Incorporation of [3H]-thymidine, stimulation index SI, 2nd exp. / Incorporation of [3H]-thymidine, stimulation index SI, 3rd exp. / Incorporation of [3H]-thymidine, stimulation index class (last column, no head): T cell-reactive region C
Procedure: (§1) 40 ml of heparinized blood were obtained from each patient. Peripheral mononuclear cells (PBMC) were then isolated from this blood sample by means of the customary method using density gradient centrifugation. Analogous cell isolations were carried out at a later stage when it was necessary to obtain irradiated autologous antigen-presenting cells (APC) for characterizing the TCL and TCC further. After the PBMC had been counted, TCL which reacted to group 5 allergens in vitro were established as follows and as has already been described in detail elsewhere (Lit. 1): in each well of 24-well microculture plates, from 1.5 to 2.0×10^6 PBMC in 1 ml of culture medium (UltraCulture) were stimulated for 7 days in the added presence of natural Phl p5 allergens (in each case 10 μg/well) which had been purified by immunoaffinity chromatography. A total of from 8 to 10 of these cultures were set up. The isolation of Phl p5 by means of immunoaffinity chromatography has been described in detail (Lit. 2). At the end of the 7 days of culture, IL-2 (from 10 to 20 IU/well) was added to the cell cultures for a further 5 to 7 days. All the individual cultures were then pooled and the T cell blasts were enriched by means of density gradient centrifugation; the TCL which were obtained were then tested in a specific lymphocyte proliferation test (see Lit. 1 as well). For this, 2×10^4/ml TCL blasts were in each case cultured with 5×10^4/ml irradiated autologous APCs in triplicate samples in 96-well microculture plates. 10-20 μg of Phl p5 allergen were added as the specific antigen stimulus. After 56 hours of incubation, ^3H-labelled thymidine (1 μCi/well) was pipetted into the microcultures. After a further 16 hours, the radioactivity which had been incorporated into the proliferating T cell blasts was measured in a beta counter (Matrix 96). The results were calculated, as the arithmetic mean of the multiple samples, in counts per minute (cpm). The criterion for the quality of the TCL was the stimulation index, which was obtained by relating the cpm values with Phl p5 addition to those without Phl p5 addition.
After a TCL had been cloned (see below), the specificity of the isolated TCCs were determined as has just been described. Stimulation indices of at least 5 were rated as being positive for the TCCs. The determination of T cell epitopes for defining the T cell-reactive regions on group 5 allergens was also carried out using specific proliferation tests, with 1-2 μg of synthesized dodecapeptide/ml being used for this purpose in each case (see below).
The reactivity of the recombinant Ph1 p 5b mutants was tested on established T cell clones (TCCs) of known specificity. The TCCs derive from patients who are allergic to grass pollen (see Ex. 1) and are directed against the T cell-reactive regions A (FIG. 7), B (FIG. 8) and C (FIG. 9). The T cell reactivity was measured by stimulating the clones to proliferate.

[2] = target: IgE antibodies of the allergic patient serum pool We 6/97; assay: EAST inhibition, serum pool We 6/97
[3] = target: IgE antibodies of the individual allergic patient serum II/12; assay: EAST inhibition, individual serum II/12
[4] = target: IgE antibodies of the allergic patient serum pool Bor 18/100 (20 donors); assay: EAST inhibition, serum pool Bor 18/100
[5] = system: Phl p 5b-reactive T cell lines (TCLs) from allergic patients; assay: Proliferative reaction of Phl p 5b-reactive oligoclonal T cell lines ([3H]-thymidine incorporation); assay type: cell-based, human; settings: for Incorporation of [3H]-thymidine into TCL 5 17.4 (stimulation index class): primary stimulator r Phl p 5; for Incorporation of [3H]-thymidine into TCL 6 Mah (stimulation index class): primary stimulator r Phl p 5a, r Phl p 5b; for Incorporation of [3H]-thymidine into TCL 7 19.2 (stimulation index class) / Incorporation of [3H]-thymidine into TCL 8 20.1 (stimulation index class): primary stimulator r Phl p 5b
Procedure: In the second phase, oligoclonal T cell lines, which have been established by repeated stimulation with the relevant allergens, are employed for the testing. Once again, only those modified recombinant allergens which at least give rise to a stimulation index (SI) of 50% of the SI of the wild type are taken into consideration.
as §1
The oligoclonal T cell lines (TCLs) from 8 patients who were allergic to grass pollen (see Ex. 1) were established by repeated activation with natural Ph1 p 5b (a+b) or recombinant rPh1 p 5b or 5a+5b.
The proliferative reaction of these TCLs was tested using the rPh1 p 5b mutants (FIG. 10).

[6] = primary stimulator n Phl p 5, secondary activator 0.3 μM

Molecule | Incorporation of [3H]-thymidine into TCC JR 13 (stimulation index class) [1] | Incorporation of [3H]-thymidine into TCC JR 15 (stimulation index class) [1] | Incorporation of [3H]-thymidine into TCC DW8 (stimulation index class) [1] | Incorporation of [3H]-thymidine into TCC UZH2 (stimulation index class) [1] | Incorporation of [3H]-thymidine, stimulation index SI, 1st exp. [1] | Incorporation of [3H]-thymidine, stimulation index SI, 2nd exp. [1] | Incorporation of [3H]-thymidine, stimulation index SI, 3rd exp. [1] | Incorporation of [3H]-thymidine, stimulation index class (last column, no head) [1] | IC50 [2] [nM] | allergenic potency (Prel) at 25% inhibition (relative to native Phl p 5b) [2] | allergenic potency (Prel) at 50% inhibition (relative to native Phl p 5b) [2] | inhibition value (inhibitor concentration at 25% inhibition) [2] [mol/L] | IC50 [3] [nM] | allergenic potency (Prel) at 25% inhibition (relative to native Phl p 5b) [3] | allergenic potency (Prel) at 50% inhibition (relative to native Phl p 5b) [3] | inhibition value (inhibitor concentration at 25% inhibition) [3] [mol/L] | IC50 [4] [nM] | Incorporation of [3H]-thymidine into TCL 5 17.4 (stimulation index class) ([5]; secondary activator 0.3 μM) | Incorporation of [3H]-thymidine into TCL 7 19.2 (stimulation index class) ([5]; secondary activator 0.3 μM) | Incorporation of [3H]-thymidine into TCL 8 20.1 (stimulation index class) ([5]; secondary activator 0.3 μM) | also measured
rPhl p 5b deletion mutant DM3 (deletion A154-T177, A220T) (protein) ADAGYAPATPAAAGAAAGKATTEEQKLIEDINVGFKAAVAAAASVPAADKFKTFEAAFTSSSKAAAAKAPGLVPKLDAAYSVAYKAAVGATPEAKFDSFVASLTEALRVIAGALEVHAVKPVTEEPGMAKIPAGELQIIDKIDAAFKVAATAAGGAYDTYKCIPSLEAAVKQAYAATVAAAPQVKYAVFEAALTKTITAMSEVQKVSQPATGAATVAAGAATTAAGAASGAATVAAGGYKV | +++ (>10 (+++)) | +++ (>10 (+++)) | + (1-2 (+)) | +++ (>10 (+++)) | 9.8 | 6.9 | 4.4 | ++ (5-10 (++)) | 29 | 0.099 | 0.002 | 5.1e-09 | 100000 | 0.012 | 5.7e-05 | 4.5e-09 | 4100 | ++ (5-10 (++)) | +++ (>10 (+++)) | +++ (>10 (+++)) | allergenic potency (Prel) at 25% inhibition (relative to native Phl p 5b) [4]: 0.028; allergenic potency (Prel) at 50% inhibition (relative to native Phl p 5b) [4]: 0.0001; inhibition value (inhibitor concentration at 25% inhibition) [4]: 1.2e-09 mol/L; Proliferative reaction of TCLs (in words) ([5]; TCLs from 8 patients allergic to grass pollen): strong specific stimulation with most of the TCLs; Incorporation of [3H]-thymidine into TCL 2 Eic (stimulation index class) [5, 6]: + (1-2 (+)); Incorporation of [3H]-thymidine into TCL 4 Mer (stimulation index class) [5, 6]: ++ (5-10 (++)); Incorporation of [3H]-thymidine into TCL 6 Mah (stimulation index class) ([5]; secondary activator 0.3 μM): +++ (>10 (+++))
rPhl p 5b point mutant PM1 (N32D, D49L, K50A) (protein) ADAGYAPATPAAAGAAAGKATTEEQKLIEDIDVGFKAAVAAAASVPAALAFKTFEAAFTSSSKAAAAKAPGLVPKLDAAYSVAYKAAVGATPEAKFDSFVASLTEALRVIAGALEVHAVKPVTEEPGMAKIPAGELQIIDKIDAAFKVAATAAATAPADDKFTVFEAAFNKAIKESTGGAYDTYKCIPSLEAAVKQAYAATVAAAPQVKYAVFEAALTKAITAMSEVQKVSQPATGAATVAAGAATTAAGAASGAATVAAGGYKV | +++ (>10 (+++)) | ++ (5-10 (++)) | + (1-2 (+)) | +++ (>10 (+++)) |  |  | 1.1 | − (<1 (−)) | 120 | 0.415 | 0.051 | 1.2e-09 | 83 | 0.391 | 0.082 | 1.3e-09 | 12 | + (1-2 (+)) | +++ (>10 (+++)) | +++ (>10 (+++)) | Incorporation of [3H]-thymidine into TCC CB 2 (stimulation index class) [1]: +++ (>10 (+++)); Incorporation of [3H]-thymidine into TCC CB 14 (stimulation index class) [1]: +++ (>10 (+++)); allergenic potency (Prel) at 25% inhibition (relative to native Phl p 5b) [4]: 0.739; allergenic potency (Prel) at 50% inhibition (relative to native Phl p 5b) [4]: 0.349; inhibition value (inhibitor concentration at 25% inhibition) [4]: 4.5e-10 mol/L; Incorporation of [3H]-thymidine into TCL 1 Wöl (stimulation index class) [5, 6]: + (1-2 (+)); Incorporation of [3H]-thymidine into TCL 3 Fre (stimulation index class) [5, 6]: + (1-2 (+)); Incorporation of [3H]-thymidine into TCL 6 Mah (stimulation index class) ([5]; secondary activator 0.3 μM): ++ (5-10 (++))
rPhl p 5b point mutant PM3 (A13C) (protein) ADAGYAPATPAACGAAAGKATTEEQKLIEDINVGFKAAVAAAASVPAADKFKTFEAAFTSSSKAAAAKAPGLVPKLDAAYSVAYKAAVGATPEAKFDSFVASLTEALRVIAGALEVHAVKPVTEEPGMAKIPAGELQIIDKIDAAFKVAATAAATAPADDKFTVFEAAFNKAIKESTGGAYDTYKCIPSLEAAVKQAYAATVAAAPQVKYAVFEAALTKAITAMSEVQKVSQPATGAATVAAGAATTAAGAASGAATVAAGGYKV | +++ (>10 (+++)) |  |  | +++ (>10 (+++)) | 7.4 | 5.9 | 4.5 | ++ (5-10 (++)) | 30 | 0.611 | 0.203 | 8.3e-10 | 91 | 0.389 | 0.075 | 1.3e-09 | 4.8 | + (1-2 (+)) | +++ (>10 (+++)) | + (1-2 (+)) | Incorporation of [3H]-thymidine into TCC CB 2 (stimulation index class) [1]: +++ (>10 (+++)); allergenic potency (Prel) at 25% inhibition (relative to native Phl p 5b) [4]: 1.64; allergenic potency (Prel) at 50% inhibition (relative to native Phl p 5b) [4]: 0.864; inhibition value (inhibitor concentration at 25% inhibition) [4]: 2e-10 mol/L; Incorporation of [3H]-thymidine into TCL 3 Fre (stimulation index class) [5, 6]: + (1-2 (+)); Incorporation of [3H]-thymidine into TCL 4 Mer (stimulation index class) [5, 6]: + (1-2 (+))
DM1: deletion mutant of rPhl p 5b (ΔK50-P132, D49→L), SEQ ID NO 91 (protein) ADAGYAPATPAAAGAAAGKATTEEQKLIEDINVGFKAAVAAAASVPAALAGELQIIDKIDAAFKVAATAAATAPADDKFTVFEAAFNKAIKESTGGAYDTYKCIPSLEAAVKQAYAATVAAAPQVKYAVFEAALTKAITAMSEVQKVSQPATGAATVAAGAATTAAGAASGAATVAAGGYKV | +++ (>10 (+++)) | +++ (>10 (+++)) | + (1-2 (+)) | +++ (>10 (+++)) | 8.6 | 6.2 | 4.4 | ++ (5-10 (++)) |  |  |  |  |  |  |  |  |  | + (1-2 (+)) | +++ (>10 (+++)) | +++ (>10 (+++)) | Incorporation of [3H]-thymidine into TCC CB 2 (stimulation index class) [1]: +++ (>10 (+++)); Incorporation of [3H]-thymidine into TCC CB 14 (stimulation index class) [1]: +++ (>10 (+++)); Incorporation of [3H]-thymidine into TCL 2 Eic (stimulation index class) [5, 6]: + (1-2 (+)); Incorporation of [3H]-thymidine into TCL 3 Fre (stimulation index class) [5, 6]: + (1-2 (+)); Incorporation of [3H]-thymidine into TCL 4 Mer (stimulation index class) [5, 6]: + (1-2 (+)); Incorporation of [3H]-thymidine into TCL 6 Mah (stimulation index class) ([5]; secondary activator 0.3 μM): ++ (5-10 (++))
